Results on two molecules are retold here after paper PMC10120838, “Dual functions of PsmiR172b-PsTOE3 module in dormancy release and flowering in tree peony (Paeonia suffruticosa)”.

The target in this data set is PsTOE3 (MBP-PsTOE3; PsAP2 in primer table) (Paeonia suffruticosa, UniProt A0A189CP77 1-510). Description: EMSA; poly(dI-dC); DIG Gel Shift Kit (Roche) per manufacturer, probe 0.155 uM, poly(dI-dC); protein suspended in 20 mM Tris-HCl, 0.2 M NaCl, 1 mM EDTA, 10 mM beta-mercaptoethanol; pH and temperature not stated. Particulars: protein: recombinant, purified on Ni-NTA, label: DIG, blunt.
Sequence of PsTOE3 (MBP-PsTOE3; PsAP2 in primer table) (A0A189CP77 entry or part of it): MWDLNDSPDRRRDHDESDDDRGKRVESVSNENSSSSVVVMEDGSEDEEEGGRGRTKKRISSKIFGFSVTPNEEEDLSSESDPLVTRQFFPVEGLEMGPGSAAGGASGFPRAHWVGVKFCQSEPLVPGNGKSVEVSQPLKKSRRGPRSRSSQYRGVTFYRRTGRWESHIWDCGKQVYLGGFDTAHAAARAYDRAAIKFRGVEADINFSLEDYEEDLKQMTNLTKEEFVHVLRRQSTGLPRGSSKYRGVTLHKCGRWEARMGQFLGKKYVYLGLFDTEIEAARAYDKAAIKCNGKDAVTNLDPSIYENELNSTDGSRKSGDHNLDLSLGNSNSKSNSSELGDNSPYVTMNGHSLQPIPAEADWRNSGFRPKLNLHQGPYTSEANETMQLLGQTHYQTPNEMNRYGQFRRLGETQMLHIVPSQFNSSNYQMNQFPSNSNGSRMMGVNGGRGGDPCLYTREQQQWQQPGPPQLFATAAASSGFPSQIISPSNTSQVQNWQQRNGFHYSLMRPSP

B1: mutant C-repeat probe (4x AGCGAC) (dsDNA)
DNA 1: AAGCGACAGCGACAGCGACAGCGAC
DNA 2: GTCGCTGTCGCTGTCGCTGTCGCTT
As to B1, the binding result (R oligo S211 is printed as the plain complement (3'-5' order) although the header says 5'-3') was “no binding”.

B2: C-repeat probe of PsEBB1 (4x ACCGAC) (dsDNA)
DNA 1: AACCGACACCGACACCGACACCGAC
DNA 2: GTCGGTGTCGGTGTCGGTGTCGGTT
For the molecule B2, the binding result (R oligo S209 is printed as the plain complement (3'-5' order) although the header says 5'-3') was “binds”.
